This is an account of results in patent US20110293603A1 (Ablynx, published 2011).

Assay [1] deals with T1, extracellular part of recombinant human Lox-1 fused to polyhistidine tag (R&D Systems, cat nr. 1798-LX) (human, UniProt P78380 61-273). Nature of the assay: ELISA, rhLox-1 coated at 2 ug/ml, nanobody 1-1000 nM, detection with anti-Myc 9E10. On the technique in general: ELISA stands for enzyme-linked immunosorbent assay.
For assay [2], the target named is T2, extracellular part of recombinant human SR-A1 fused to polyhistidine tag (R&D Systems Cat No 2708-MS) (human, UniProt P21757 77-451).
T2 construct: range 77-451; Bought protein; that entry was therefore not used; also called rhSRA-1
T2 sequence: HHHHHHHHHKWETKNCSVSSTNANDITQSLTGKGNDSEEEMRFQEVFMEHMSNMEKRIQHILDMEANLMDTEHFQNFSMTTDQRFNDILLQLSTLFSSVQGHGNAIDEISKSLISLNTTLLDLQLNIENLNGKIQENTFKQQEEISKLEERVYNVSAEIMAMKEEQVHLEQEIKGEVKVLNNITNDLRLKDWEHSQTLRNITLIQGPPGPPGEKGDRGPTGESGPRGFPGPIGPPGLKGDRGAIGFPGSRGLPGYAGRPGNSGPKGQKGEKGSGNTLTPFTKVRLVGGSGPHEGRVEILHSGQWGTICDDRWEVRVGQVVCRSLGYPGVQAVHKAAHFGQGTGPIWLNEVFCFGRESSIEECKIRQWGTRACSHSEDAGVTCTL
Nature of the assay: ELISA, rhSRA-1 coated at 2 ug/ml, nanobody 1-1000 nM, detection with anti-Myc 9E10.

The target of assay [3] is T3, extracellular part of recombinant human RAGE fused to human Fc (R&D Systems Cat No 1145-RG) (human, UniProt Q15109 23-342).
T3 construct: extracellular domain; Bought protein; they look like the limits of the IgG1 Fc part; also called rhRG; 1145-RAGE; not shown: human Fc region of human IgG1, at the C-terminus
T3 sequence (Q15109 23-342): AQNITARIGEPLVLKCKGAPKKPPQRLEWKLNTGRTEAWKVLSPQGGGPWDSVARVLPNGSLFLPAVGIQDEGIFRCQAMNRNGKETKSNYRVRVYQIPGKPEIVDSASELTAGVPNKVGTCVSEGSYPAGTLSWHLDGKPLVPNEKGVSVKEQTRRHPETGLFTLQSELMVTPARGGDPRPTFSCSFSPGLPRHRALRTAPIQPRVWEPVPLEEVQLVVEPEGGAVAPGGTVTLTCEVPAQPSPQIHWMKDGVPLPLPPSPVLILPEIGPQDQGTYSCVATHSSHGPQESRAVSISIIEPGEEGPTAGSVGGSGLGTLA
Nature of the assay: immunoprecipitation on Talon beads, SDS-PAGE and blot with mouse anti-RAGE and mouse anti-myc. As for the experimental part:
In order to test the binding of anti-RAGE clones further an Immunoprecipitation experiment was performed. In short, 100 ul of Talon slurry (50 ul beads) was washed carefully with lysis buffer (RIPA without EDTA) (20 mM tris pH7.4; 150 mM NaCl; 0.5% TritonX100; 0.1% SDS). 10 ug of VHHs was added to the beads in 200 ul of lysis buffer and incubate for 30 min hoh. The beads were washed once with lysis buffer and 1 ug of rhRG was added to the beads (100 ul) and incubated for 1 hour. The beads were spinned down and supernatant was removed. The beads were washed twice. Subsequently the beads were boiled for 5 min in sample buffer and the proteins were separated on a SDS PAGE by gel electrophoresis (FIG. 1).
The high molecular weight part was detected with mouse-anti-RAGE antibody (R&D systems) and the lower part was detected with mouse anti-myc.

The target in assay [4] is T1, extracellular part of recombinant human …. Nature of the assay: ELISA, rhLox-1 coated at 2 ug/ml, nanobody detected with anti-Myc 9E10.
Assay [5] deals with T2, extracellular part of recombinant human …. Nature of the assay: ELISA, rhSRA-1 coated at 2 ug/ml, nanobody detected with anti-Myc 9E10.

B1: Nanobody 105A8 (VHH)
VHH: EVQLVESGGNLVQAGGSLRLSCAASGFTFDDYVIGWFRQAPGKEREGVSCISSVEGSTYYADSVKGRFTISGDNAKNTVYLQMNSLKPEDTAVYYCAAGTWLDCSGYGSYDMDYWGKGTLVTVSS
notes: Myc-tagged (detected with anti-Myc 9E10)
Consider B1, for which, in assay [1], the binding result is on record as “binds”.

B2: Nanobody 98B9 (VHH)
VHH: EVQLVESGGGLVQAGGSLRLSCAASIGTFSAYHMGWFRQAPGKERELVAAISWSVSSTYYADSVKGRFTISRDNAKRTVSLQMDSLKPEDTAVYYCAARSGERYDYYKAQYEYWGQGTQVTVSS
notes: as for B1
As to B2, the binding result in assay [1] is “binds”.

B3: Nanobody 105B8 (VHH)
VHH: EVQLVESGGGLVQAGGSLRLSCAASGFTFDDYVIGWFRQAPGKEREGVSCISSSEGSTYYAESVKGRFTISSDNAKNTVYLQMNSLKPEDTAVYYCAASTWLDFVHGNEYDYRGQGTQVTVSS
notes: as for B1
As for B3, the binding result in assay [1] was “binds”.

B4: Nanobody 98D8 (VHH)
VHH: EVQLVESGGGLVQPGGSLRLSCAASGSIFTINAMAWYRQAPGKQRELVAHLTNSGRTGYADSVKGRFTISSDNAKNTVYLQMNSLKPEDTAVYYCNRLGLHWSWGQGTQVTVSS
notes: as for B1
Consider B4, for which, in assay [1], the binding result is on record as “binds”.

B5: Nanobody 105G11 (VHH)
VHH: EVQLVESGGGLVQAGGSLRLSCAASGRTFSRYAMAWFRHAPGKDREFVAAVSQSGLLTFYADSVKGRFTISRDNAKNTVYLQMNSLKPEDTAVYDCAADSRFPLVVPVAYENWGQGTQVTVSS
notes: as for B1
Turning to B5, the binding result in assay [2] is recorded as “binds”.

B6: Nanobody 98A10 (VHH)
VHH: EVQLVESGGGLVQPGGSLRLSCLPSTSTSSLRTVGWYRQGPGKQRDLVAIMSAGTTRYADSVKGRFTISLDDAKNTVYLQMNSLKPEDTAVYICNGRPVFSNVDYWGQGTQVTVSS
notes: as for B1
B6: the binding result in assay [1] was “binds”.

B7: Nanobody 105F7 (VHH)
VHH: EVQLVESGGGLVQAGGSLRLSCAASGRTFSNYAMGWFRQAPGKEREFVAAITWSGSSTYYADSVKGRFTISRDNAKNTVYLQMNSLKPEDTAVYYCAAAQRGRYYYLDRNVEYDYWGQGTQVTVSS
notes: as for B1
For the molecule B7, the binding result in assay [1] is listed as “binds”.

B8: Nanobody 99C8 (VHH)
VHH: EVQLVESGGGLVQPGGSLRLSCAASGSIGRFVAMGWYRQAPGKQRELVATITSITSGGRTNYADSVKGRFTISRDNAKNTVYLQMNSLKPEDTAVYYCNVVPYVNDYWGQGTQVTVSS
notes: Myc-tagged (detected with anti-Myc 9E10); also called 99C8 α SR-A1
Consider B8, for which the binding result in assay [2] is “binds”.

B9: Nanobody 99D3 (VHH)
VHH: EVQLVESGGGLVQPGGSLRLSCAASGFTLGNYAIGWFRQAPGKEREGVSCVDRDGGSTYYLDSVTGRFTTSRDDAENTVYLQMNSLIPDDTAVYYCATRLYGCSGYGRDYADWGQGTQVTVSS
notes: as for B1
In the case of B9, in assay [3], the binding result is given as “no binding”.

B10: Nanobody 99C9 (VHH)
VHH: EVQLVESGGGLVQVGGSLRLSCAASGISIRTHAMGWYRQAPGKQRELVATITSVTSGGSLNYADSVKGRFTISRDNAKNTVYLQMNSLKPEDTAVYYCKLLGFDYRGQGTQVTVSS
notes: as for B1
Regarding B10, the binding result in assay [2] was “binds”.

B11: Nanobody 49C5 (negative control, irrelevant nanobody against alphaFcgRI) (VHH)
VHH: EVQLVESGGGLVQAGGSLGLSCVASGRTFVSGGMGWFRQAPGKEREFVASIVWIGGRTYYADSVKGRFTISGDNAKSTVTLQMNSLKPEDTATYYCADGDLATGTYDYWGQGTQVTVSS
notes: Negative control; generation published in WO2008/074867; Myc-tagged (detected with 9E10)
For B11, the binding result in assay [4] and in assay [5] was “no binding (tested: 1-1000 nM)” throughout.

B12: Nanobody 98F12 (VHH)
VHH: EVQLVESGGGLVQAGGSLRLSCAASGFTFDDYAIGWFRQAPGKEREGVSCVSRDGGSTYYLDSVKGRFTISSDNAKNTVYLQMNSLKPEDAAVYYCAASRYDCSKYLIDYNYRGQGTQVTVSS
notes: as for B1
For the molecule B12, the binding result in assay [1] is given as “binds”.

B13: Nanobody 98E9 (VHH)
VHH: EVQLVESGGGLVQPGGSLRLSCAAYGSFFSIGTMGWYRQPPGNQRELVAVTYGLGSTNYAESVKGRFTISRDNAKNTVSLQMNSLKPEDTAVYYCYAEIDTDPRSGEWDYWGQGTQVTVSS
notes: as for B1
For the molecule B13, in assay [1], the binding result was “binds”.
